# Test results: article PMC12830800
# Target: Coxsackievirus A6 (CVA6) strain 54203/HeB/CHN/2012 mature virion (coxsackievirus A6 strain 54203/HeB/CHN/2012)
binder,measurement,value
His-tagged human KRM1 ectodomain (residues A23-G373) (domain or fragment) APSPGLGPECFTANGADYRGTQNWTALQGGKPCLFWNETFQHPYNTLKYPNGEGGLGEHNYCRNPDGDVSPWCYVAEHEDGVYWKYCEIPACQMPGNLGCYKDHGNPPPLTGTSKTSNKLTIQTCISFCRSQRFKFAGMESGYACFCGNNPDYWKYGEAASTECNSVCFGDHTQPCGGDGRIILFDTLVGACGGNYSAMSSVVYSPDFPDTYATGRVCYWTIRVPGASHIHFSFPLFDIRDSADMVELLDGYTHRVLARFHGRSRPPLSFNVSLDFVILYFFSDRINQAQGFAVLYQAVKEELPQERPAVNQTVAEVITEQANLSVSAARSSKVLYVITTSPSHPPQTVPG,"share of A-particles among the particles after incubation of virions with KRM1 ectodomain (1:120, 35 min, room temperature; cryo-EM classification); none in the untreated sample",69.8%
